Data taken from patent publication US20040248211A1, “ICAM-related protein” (priority 1992, published 2004).
Numbering of substitutions follows the chain as printed. Names and notes keep the numbering of the source.

Tests used:
[1] = molecular target: T1, ICAM-R (Homo sapiens, UniProt P32942); assay: Blocking of biotinylated murine ICR-8.1 binding
T1 construct: express the full length ICAM-1 and ICAM-R proteins, respectively; expressed in transfected cells; host or cells: COS cells, DEAE-dextran, plasmid pcDNA1AmpICAM-R
T1 sequence (P32942 30-547): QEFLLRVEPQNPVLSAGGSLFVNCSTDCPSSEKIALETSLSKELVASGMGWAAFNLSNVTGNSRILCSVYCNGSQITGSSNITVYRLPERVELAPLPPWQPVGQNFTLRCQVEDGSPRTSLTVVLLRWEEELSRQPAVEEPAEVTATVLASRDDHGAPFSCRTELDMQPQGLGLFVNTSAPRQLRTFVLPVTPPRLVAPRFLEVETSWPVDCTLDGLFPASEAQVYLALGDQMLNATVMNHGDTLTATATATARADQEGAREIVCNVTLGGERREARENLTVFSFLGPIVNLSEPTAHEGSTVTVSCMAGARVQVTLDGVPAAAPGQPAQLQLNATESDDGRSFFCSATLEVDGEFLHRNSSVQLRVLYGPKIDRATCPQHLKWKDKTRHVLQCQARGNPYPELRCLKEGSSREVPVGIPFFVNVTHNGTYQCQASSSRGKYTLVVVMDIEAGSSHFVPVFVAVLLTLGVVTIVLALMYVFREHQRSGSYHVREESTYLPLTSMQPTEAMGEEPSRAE
Excerpt: However, antibodies containing the humanized heavy chain with the Ile2 mutation show an approximate 2-fold improvement in binding over the aforementioned antibodies. In experiments in blocking the binding of biotinylated murine ICR-8.1 to ICAM-R, the miHu/VHI/HuVK and miHuVHI/MuVK antibodies compete about 2-fold less well than the murine antibody itself.

[2] = test system: Human peripheral blood lymphocytes; assay: Costimulation of lymphocytes by soluble ICAM-R; assay type: cell-based
Description: shICAM-R (Example 9) was assayed for the ability to costimulate human lymphocyte activation. Human peripheral blood lymphocytes (PBL) were obtained by Ficoll-Hypaque centrifugation and 2×10^5 cells per well were incubated in the presence of either media, plate bound shICAM-R, plate bound anti-CD3 (OKT3) or a combination of plate bound anti-CD3 and shICAM-R. At 17 hours and 4 days after initiation of culture cells were removed, stained with monoclonal antibodies to human lymphocyte activation antigens and analyzed by flow cytometry.

[3] = test system: T cells; assay: IL-2 production in response to anti-CD3 and ICAM-R proteins; assay type: cell-based, human; conditions: in comparison to the HSA control
[4] = test system: SKW3 cells; assay: Adhesion of PMA-activated SKW3 cells to plate-bound protein; assay type: cell-based, human; conditions: PMA-treated cells
Description: The partially purified shICAM-R protein was assayed for binding to SKW3 cells that were pretreated with phorbol ester as described in Example 7 to activate LFA-1-dependent adhesion. The ICAM-R protein was coated onto 96-well Immulon 4 (Dynatech) plates after adjusting the lectin eluate to 25 mM carbonate pH 9.6 and incubated overnight at 4° C. The plates were washed two times with PBS, blocked for 30 minutes at 37° C. with 200 ul/well PBS, 1% BSA, and washed again with PBS before adding cells. SKW3 cells were washed in serum-free RPMI (Gibco), labelled with Calcein-AM (Molecular Probes), and stimulated with PMA. Cells were then added to the plates and incubated for 1 hour at 37° C. The plates were inverted in prewarmed PBS, 1% BSA and were incubated for 30 minutes. The plates were then removed and half of the contents of each well was aspriated. The plates were then scanned with a fluorescence microscope and an automated fluorescence reader.
Peak fractions from wtHis6, E37His6 and mock transfectants were concentrated about 6.5 fold using Centricon 30 (Amicon) centrifugation units. The resultant concentrates were adjusted to equal vols. (0.34 ml) using PBS-D. Control soluble ICAM-R (15 ug/ml) (Example 9) in carbonate buffer pH 9.6 or in buffer D with 40 mM imidazole were made up. […]

[5] = test system: T cells; assay: T-cell proliferation in response to CD3 mAb with recombinant ICAM-R; assay type: cell-based, human; conditions: in comparison to the HSA control
Description: T cell costimulation by recombinant ICAM-R and CD3 antibody in the presence of monoclonal antibodies which block ICAM-R adhesion to VLA-4 was measured (Example 21F). The monoclonal antibodies tested were specific for domain 3 of ICAM-R or the α4 subunit of VLA-4.
Both variants were tested for effects on T-cell proliferation in response to CD3 mAb. […] Similar levels of costimulation were induced by the LFA-1 binding D231H-Ig or wild-type ICAM-R/Ig chimera which binds both LFA-1 and VLA-4.

[6] = molecular target: LFA-1 (Homo sapiens, UniProt P05107+P20701); assay: Integrin binding of ICAM-R/IgG variants
Sequence of LFA-1 (P20701 26-1170): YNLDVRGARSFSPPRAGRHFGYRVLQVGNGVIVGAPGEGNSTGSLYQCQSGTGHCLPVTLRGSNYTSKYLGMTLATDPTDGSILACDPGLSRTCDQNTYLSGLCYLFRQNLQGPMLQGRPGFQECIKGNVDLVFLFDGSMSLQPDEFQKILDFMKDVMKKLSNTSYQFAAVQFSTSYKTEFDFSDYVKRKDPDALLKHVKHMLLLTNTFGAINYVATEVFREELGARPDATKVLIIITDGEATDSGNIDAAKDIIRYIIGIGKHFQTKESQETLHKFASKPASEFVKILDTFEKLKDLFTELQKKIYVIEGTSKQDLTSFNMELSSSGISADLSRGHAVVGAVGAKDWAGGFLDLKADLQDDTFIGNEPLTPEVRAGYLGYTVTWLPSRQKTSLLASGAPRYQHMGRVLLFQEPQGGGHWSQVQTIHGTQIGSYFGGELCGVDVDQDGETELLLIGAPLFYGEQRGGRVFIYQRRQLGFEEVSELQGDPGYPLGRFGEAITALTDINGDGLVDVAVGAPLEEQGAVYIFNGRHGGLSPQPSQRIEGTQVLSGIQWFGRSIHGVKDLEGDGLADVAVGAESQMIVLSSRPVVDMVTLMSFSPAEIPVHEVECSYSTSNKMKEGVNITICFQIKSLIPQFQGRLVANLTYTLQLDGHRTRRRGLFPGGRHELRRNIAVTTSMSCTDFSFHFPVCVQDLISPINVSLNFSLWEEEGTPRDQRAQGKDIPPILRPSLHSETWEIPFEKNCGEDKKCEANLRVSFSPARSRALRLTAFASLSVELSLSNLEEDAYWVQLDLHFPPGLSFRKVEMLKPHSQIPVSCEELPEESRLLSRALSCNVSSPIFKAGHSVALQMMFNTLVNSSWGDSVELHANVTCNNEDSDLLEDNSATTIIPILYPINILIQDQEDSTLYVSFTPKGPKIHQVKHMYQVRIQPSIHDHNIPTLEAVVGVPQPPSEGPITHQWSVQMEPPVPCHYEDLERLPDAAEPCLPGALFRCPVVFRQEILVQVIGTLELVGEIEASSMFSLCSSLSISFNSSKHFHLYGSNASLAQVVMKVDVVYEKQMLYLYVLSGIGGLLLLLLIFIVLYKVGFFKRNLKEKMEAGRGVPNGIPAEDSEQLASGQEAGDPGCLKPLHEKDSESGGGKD
Sequence of LFA-1 (P05107 23-769): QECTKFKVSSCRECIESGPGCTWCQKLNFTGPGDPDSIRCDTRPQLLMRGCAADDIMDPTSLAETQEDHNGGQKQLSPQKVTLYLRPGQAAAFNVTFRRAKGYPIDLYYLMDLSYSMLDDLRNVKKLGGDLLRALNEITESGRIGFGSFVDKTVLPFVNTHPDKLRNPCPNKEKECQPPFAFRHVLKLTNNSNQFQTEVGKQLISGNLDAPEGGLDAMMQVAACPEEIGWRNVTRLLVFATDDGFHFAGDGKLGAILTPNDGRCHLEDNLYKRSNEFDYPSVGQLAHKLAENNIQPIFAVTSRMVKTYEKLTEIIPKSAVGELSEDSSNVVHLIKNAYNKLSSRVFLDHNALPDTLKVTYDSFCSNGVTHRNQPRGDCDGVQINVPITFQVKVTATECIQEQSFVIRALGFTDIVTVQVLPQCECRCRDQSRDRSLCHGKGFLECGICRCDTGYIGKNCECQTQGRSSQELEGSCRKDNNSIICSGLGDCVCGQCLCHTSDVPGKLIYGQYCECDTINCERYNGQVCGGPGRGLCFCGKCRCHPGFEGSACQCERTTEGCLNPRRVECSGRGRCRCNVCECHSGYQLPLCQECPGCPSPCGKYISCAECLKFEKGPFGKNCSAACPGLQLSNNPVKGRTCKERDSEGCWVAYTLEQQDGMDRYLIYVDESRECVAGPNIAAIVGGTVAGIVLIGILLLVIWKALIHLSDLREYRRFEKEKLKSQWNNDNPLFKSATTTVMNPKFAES

[7] = molecular target: VLA-4 (Homo sapiens, UniProt P05556+P13612); assay: Integrin binding of ICAM-R/IgG variants
[8] = molecular target: T2, αd/CD18 transfected CHO cells (Homo sapiens, UniProt P05107+Q13349); assay: Binding of transfected CHO cells to immobilized chimeras; assay type: cell-based; conditions: immobilized chimera
T2 construct: expressed in transfected cells; host or cells: CHO cells
T2 sequence (Q13349 18-1161): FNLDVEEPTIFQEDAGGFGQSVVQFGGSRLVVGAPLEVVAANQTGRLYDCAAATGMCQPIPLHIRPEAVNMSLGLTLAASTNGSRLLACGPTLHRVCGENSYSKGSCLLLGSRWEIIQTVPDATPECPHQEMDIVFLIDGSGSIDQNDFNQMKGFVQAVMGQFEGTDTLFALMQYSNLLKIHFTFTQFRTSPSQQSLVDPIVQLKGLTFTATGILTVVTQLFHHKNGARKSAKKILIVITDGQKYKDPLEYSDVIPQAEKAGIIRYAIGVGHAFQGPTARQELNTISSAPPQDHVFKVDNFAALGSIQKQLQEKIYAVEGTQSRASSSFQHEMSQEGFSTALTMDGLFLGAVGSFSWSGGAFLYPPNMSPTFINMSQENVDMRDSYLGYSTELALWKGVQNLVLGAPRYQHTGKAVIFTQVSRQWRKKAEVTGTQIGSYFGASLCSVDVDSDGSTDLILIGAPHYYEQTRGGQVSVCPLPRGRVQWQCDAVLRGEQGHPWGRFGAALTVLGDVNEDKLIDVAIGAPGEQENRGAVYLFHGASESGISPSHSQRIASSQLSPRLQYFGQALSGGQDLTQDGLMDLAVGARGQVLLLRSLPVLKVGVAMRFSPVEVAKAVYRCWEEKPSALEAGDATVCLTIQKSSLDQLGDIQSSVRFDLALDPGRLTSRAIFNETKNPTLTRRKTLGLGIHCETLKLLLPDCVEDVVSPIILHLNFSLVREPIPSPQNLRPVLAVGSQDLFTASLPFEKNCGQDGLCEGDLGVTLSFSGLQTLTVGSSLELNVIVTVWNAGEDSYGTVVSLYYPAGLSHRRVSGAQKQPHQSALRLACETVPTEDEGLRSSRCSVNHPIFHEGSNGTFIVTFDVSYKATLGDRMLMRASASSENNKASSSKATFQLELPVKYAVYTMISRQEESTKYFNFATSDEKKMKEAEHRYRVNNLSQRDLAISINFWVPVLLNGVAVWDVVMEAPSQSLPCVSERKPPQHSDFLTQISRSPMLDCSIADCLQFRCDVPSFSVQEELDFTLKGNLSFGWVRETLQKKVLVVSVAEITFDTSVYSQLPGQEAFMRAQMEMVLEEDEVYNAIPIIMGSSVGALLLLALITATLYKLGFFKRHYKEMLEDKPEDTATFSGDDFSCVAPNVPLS
T2 sequence (P05107 23-769): as the sequence (P05107 23-769) above
Description: In replicate assays, soluble ICAM-1, ICAM-R, or VCAM-1 IgG1 chimeric fusion proteins were immobilized on plastic and the ability of αd/CD18 or LFA-1 transfected CHO cells (see co-owned, concurrently filed U.S. patent application Ser. No. 08/286,889 identified as attorney docket No. 32168) to bind the immobilized ligand was determined. Transfected cells were labeled internally with calcein, washed in binding buffer (RPMI with 1% BSA), and incubated in either buffer only (with or without 10 ng/ml PMA) or buffer with anti-CD18 at 10 μg/ml. Transfected cells were added to 96-well Immulon 4 microtiter plates previously coated with soluble ICAM-1/Ig, ICAM-R/Ig or VCAM-1/Ig chimera, or bovine serum albumin (BSA) as a negative control. Wells were blocked with 1% BSA in PBS prior to addition of labeled cells. After washing the plates by immersion in PBS with 0.1% BSA for 20 minutes, total fluorescence remaining in each well was measured using a Cytofluor 2300 (Millipore, Milford, Mass.).

[9] = molecular target: T2, αd/CD18 transfected CHO cells; assay: Flow cytometry binding of soluble chimeras; conditions: chimera 5 μg/ml
Description: Binding of αd/CD18-transfected cells to soluble ICAM-1/IgG, ICAM-R/IgG, or VCAM-1/IgG chimeras was determined by flow cytometry. Approximately one million αd/CD18-transfected CHO cells (grown in spinner flasks for higher expression) per measurement were suspended in 100 μl binding buffer (RPMI and 1% BSA) with or without 10 μg/ml anti-CD18 antibody. After a 20 minute incubation at room temperature, the cells were washed in binding buffer and soluble ICAM-1/IgG or ICAM-R/IgG chimera was added to a final concentration of 5 μg/ml. Binding was allowed to proceed for 30 minute at 37° C., after which the cells were washed three times and resuspended in 100 μl binding buffer containing FITC-conjugated sheep anti-human IgG1 at a 1:100 dilution. After a 30 minute incubation, samples were washed three times and suspended in 200 μl binding buffer for analysis with a Becton Dickinson FACScan.

B1: miHu/VHI/HuVK: ICR-8.1 miHuVHI (Val2 to Ile2) heavy chain with humanized VK (antibody, V domains shown)
VH: QIQLVQSGAEVKKPGASVKVSCKASGYTFTDCIILWVRQAPGQGLEWMGKINPYFGTTTYAQKFQGRVTITADTSTSTAYMELSSLRSEDTAVYYCARKEAYPDAMDYWGQGTLVTVSS
VL: DIVMTQSPLSLPVTPGEPASISCRSSQSLVHSNGDTYLHWYLQKPGQSPQLLIYKVSNRFSGVPDRFSGSGSGTDFTLKISRVEAEDVGVYYCSQSTHVPYTFGQGTKVEIK
- compete less well than murine ICR-8.1 in blocking binding of biotinylated murine ICR-8.1 [1]: about 2 fold

B2: shICAM-R: soluble human ICAM-R truncated at amino acid 457, baculovirus expressed (protein)
chain: QEFLLRVEPQNPVLSAGGSLFVNCSTDCPSSEKIALETSLSKELVASGMGWAAFNLSNVTGNSRILCSVYCNGSQITGSSNITVYGLPERVELAPLPPWQPVGQNFTLRCQVEGGSPRTSLTVVLLRWEEELSRQPAVEEPAEVTATVLASRDDHGAPFSCRTELDMQPQGLGLFVNTSAPRQLRTFVLPVTPPRLVAPRFLEVETSWPVDCTLDGLFPASEAQVYLALGDQMLNATVMNHGDTLTATATATARADQEGAREIVCNVTLGGERREARENLTVFSFLGPIVNLSEPTAHEGSTVTVSCMAGARVQVTLDGVPAAAPGQTAQLQLNATESDDGRSFFCSATLEVDGEFLHRNSSVQLRVLYGPKIDRATCPQHLKWKDKTRHVLQCQARGNPYPELRCLKEGSSREVPVGIPFFVNVTHNGTYQCQASSSRGKYTLVVVMDIEAFSSH
- expression of activation antigens ICAM-1, IL-2 receptor, transferrin receptor ([2]; 4 days, plate bound anti-CD3 0.5 ug/well and protein 100 ng/well, versus anti-CD3 alone): elevated levels of the activation antigens ICAM-1, IL-2 receptor and transferrin receptor
- expression of activation antigens ICAM-1, IL-2 receptor, transferrin receptor ([2]; protein 100 ng/well alone, versus media alone): no increased levels of these activation antigens
- IL-2 production in response to CD3 mAb [3]: enhanced IL-2 production
- adhesion of SKW3 cells to plate bound protein [4]: demonstrated adhesion of phorbol ester-activated lymphocytes

B3: E37T-Ig: ICAM-R/IgG variant which binds VLA-4 but not LFA-1 (protein)
chain: B2 chain with E37A, T38S
modifications: left off: a dimerising Fc or GST
- IL-2 production in response to CD3 mAb [3]: inhibited IL-2 production
- T-cell proliferation in response to CD3 mAb [5]: markedly inhibited T-cell proliferation
- LFA-1 binding [6]: not LFA-1
- VLA-4 binding [7]: binds VLA-4

B4: D231H-Ig: ICAM-R/IgG variant with reduced VLA-4 binding, full LFA-1 binding (protein)
chain: B2 chain with D231H
modifications: left off: a dimerising Fc or GST
- IL-2 production in response to CD3 mAb [3]: to a lesser extent
- T-cell proliferation in response to CD3 mAb [5]: enhanced CD3 mAb driven T-cell proliferation
- LFA-1 binding [6]: retaining full LFA-1 binding capacity
- VLA-4 binding [7]: reduced VLA-4 binding capacity

B5: VCAM-1/IgG: soluble VCAM-1 IgG1 chimeric fusion protein (protein)
chain: FKIETTPESRYLAQIGDSVSLTCSTTGCESPFFSWRTQIDSPLNGKVTNEGTTSTLTMNPVSFGNEHSYLCTATCESRKLEKGIQVEIYSFPKDPEIHLSGPLEAGKPITVKCSVADVYPFDRLEIDLLKGDHLMKSQEFLEDADRKSLETKSLEVTFTPVIEDIGKVLVCRAKLHIDEMDSVPTVRQAVKELQVYISPKNTVISVNPSTKLQEGGSVTMTCSSEGLPAPEIFWSKKLDNGNLQHLSGNATLTLIAMRMEDSGIYVCEGVNLIGKNRKEVELIVQEKPFTVEISPGPRIAAQIGDSVMLTCSVMGCESPSFSWRTQIDSPLSGKVRSEGTNSTLTLSPVSFENEHSYLCTVTCGHKKLEKGIQVELYSFPRDPEIEMSGGLVNGSSVTVSCKVPSVYPLDRLEIELLKGETILENIEFLEDTDMKSLENKSLEMTFIPTIEDTGKALVCQAKLHIDDMEFEPKQRQSTQTLYVNVAPRDTTVLVSPSSILEEGSSVNMTCLSQGFPAPKILWSRQLPNGELQPLSENATLTLISTKMEDSGVYLCEGINQAGRSRKEVELIIQVTPKDIKLTAFPSESVKEGDTVIISCTCGNVPETWIILKKKAETGDTVLKSIDGAYTIRKAQLKDAGVYECESKNKVGSQLRSLTLDVQGRENNKDYFSPE
modifications: left off: a dimerising Fc or GST
notes: soluble VCAM-1 IgG1 chimeric fusion protein
- increase in binding of αd/CD18 co-transfectants over BSA coated wells [8]: No detectable binding
- αd/CD18 transfectants binding soluble chimera [9]: no binding
